In US20250002593A1 (INMAGENE PTE, published 2025):

Columns and labels:
[1] = target: T1, Recombinant hIL-36R protein (Acrobio, Cat #IL2-H52H6) (human, UniProt Q9HB29 20-335); experiment: BLI (Gator)
T1 construct: Bought soluble protein; also called recombinant human IL-36R protein
T1 sequence: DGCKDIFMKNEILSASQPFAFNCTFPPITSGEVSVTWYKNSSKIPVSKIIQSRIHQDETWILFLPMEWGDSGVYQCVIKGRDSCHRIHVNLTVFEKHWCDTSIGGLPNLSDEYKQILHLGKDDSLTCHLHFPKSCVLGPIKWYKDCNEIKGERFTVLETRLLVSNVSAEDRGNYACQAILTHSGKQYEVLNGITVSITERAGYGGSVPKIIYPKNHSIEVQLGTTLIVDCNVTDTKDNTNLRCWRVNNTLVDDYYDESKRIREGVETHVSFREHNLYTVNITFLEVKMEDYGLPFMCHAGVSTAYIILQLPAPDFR

[2] = target: T2, Recombinant hIL1R1 protein (human, UniProt P14778 18-332, limits assumed); experiment: ELISA on coated hIL1R1
T2 sequence (looked up): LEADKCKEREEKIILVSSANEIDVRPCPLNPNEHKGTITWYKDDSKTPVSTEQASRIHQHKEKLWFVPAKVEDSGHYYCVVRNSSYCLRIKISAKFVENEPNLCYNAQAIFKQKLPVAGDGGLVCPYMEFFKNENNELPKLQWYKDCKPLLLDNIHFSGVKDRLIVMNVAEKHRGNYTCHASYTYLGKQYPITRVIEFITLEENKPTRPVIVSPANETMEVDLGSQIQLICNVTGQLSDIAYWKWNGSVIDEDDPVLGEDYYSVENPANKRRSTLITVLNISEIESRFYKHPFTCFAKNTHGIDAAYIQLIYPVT

membrane hIL-36R [3] = target: T3, membrane hIL-36R (human, UniProt Q9HB29 20-575); experiment: cell-based or functional assay
T3 sequence: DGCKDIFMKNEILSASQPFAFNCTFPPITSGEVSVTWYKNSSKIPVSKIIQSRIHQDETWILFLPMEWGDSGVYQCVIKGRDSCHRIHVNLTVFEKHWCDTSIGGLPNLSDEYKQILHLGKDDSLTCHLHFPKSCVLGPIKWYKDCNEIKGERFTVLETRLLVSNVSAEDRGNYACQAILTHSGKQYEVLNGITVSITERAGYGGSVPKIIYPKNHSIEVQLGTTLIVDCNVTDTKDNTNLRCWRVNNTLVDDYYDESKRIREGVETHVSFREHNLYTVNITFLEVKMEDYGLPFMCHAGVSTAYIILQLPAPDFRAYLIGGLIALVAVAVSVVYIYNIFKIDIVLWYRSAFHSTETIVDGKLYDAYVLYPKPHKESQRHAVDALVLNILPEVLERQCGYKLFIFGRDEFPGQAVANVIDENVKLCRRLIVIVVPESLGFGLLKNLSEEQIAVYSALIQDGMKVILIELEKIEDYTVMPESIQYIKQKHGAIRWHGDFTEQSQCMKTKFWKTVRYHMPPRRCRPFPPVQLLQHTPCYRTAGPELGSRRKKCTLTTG

membrane hIL-36R [4] = target: T3, membrane hIL-36R; experiment: cell-based or functional assay; remark: listed apart in the source
recombinant hIL-36R-his = target: T4, recombinant hIL-36R-his (human, UniProt Q9HB29 20-337); experiment: ELISA on coated recombinant hIL-36R-his, HRP anti-hIgG
T4 construct: Residues 1-337 (extracellular domain) are stated for the IL-36R-his used as immunogen; The range includes the signal peptide; no cleavage site is stated; also called recombinant hIL36R protein; recombinant human IL-36R-his protein; not shown: His tag
T4 sequence: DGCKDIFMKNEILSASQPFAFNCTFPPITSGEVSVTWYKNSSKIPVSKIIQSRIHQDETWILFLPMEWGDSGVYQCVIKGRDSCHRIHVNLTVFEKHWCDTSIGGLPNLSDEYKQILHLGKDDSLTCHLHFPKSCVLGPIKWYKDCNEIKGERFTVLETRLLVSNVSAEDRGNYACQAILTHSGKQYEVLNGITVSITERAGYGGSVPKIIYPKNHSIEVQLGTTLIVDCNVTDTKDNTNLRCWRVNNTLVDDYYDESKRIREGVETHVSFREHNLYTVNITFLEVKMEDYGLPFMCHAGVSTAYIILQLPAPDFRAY

membrane mouse IL-36R = target: T5, membrane mouse IL-36R (mouse, UniProt Q9ERS7 22-574); experiment: flow cytometry on HEK293 cells transfected with mouse IL-36R
T5 construct: whole, on cells; also called mouse IL-36R on HEK293 cells transfected with pcDNA3.1-musIL36R
T5 sequence (looked up): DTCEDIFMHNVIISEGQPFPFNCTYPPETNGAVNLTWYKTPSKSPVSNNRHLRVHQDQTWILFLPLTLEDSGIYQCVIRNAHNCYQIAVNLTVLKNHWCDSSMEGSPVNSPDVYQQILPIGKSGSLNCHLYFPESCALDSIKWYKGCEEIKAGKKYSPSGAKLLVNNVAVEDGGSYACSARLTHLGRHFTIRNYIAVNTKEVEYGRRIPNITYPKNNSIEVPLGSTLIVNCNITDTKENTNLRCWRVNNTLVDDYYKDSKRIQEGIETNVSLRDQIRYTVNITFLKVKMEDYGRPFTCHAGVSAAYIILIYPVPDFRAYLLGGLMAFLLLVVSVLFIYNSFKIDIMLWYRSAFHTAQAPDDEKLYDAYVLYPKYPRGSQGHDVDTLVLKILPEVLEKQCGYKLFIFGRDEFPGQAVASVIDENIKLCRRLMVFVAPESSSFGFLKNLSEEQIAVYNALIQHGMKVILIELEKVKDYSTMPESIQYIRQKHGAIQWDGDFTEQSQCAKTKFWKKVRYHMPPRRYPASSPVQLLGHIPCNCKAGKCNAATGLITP

[5] = target: T1, Recombinant hIL-36R protein (Acrobio, …); experiment: SPR (Biacore T200, 25 C), antibody captured by Fc, hIL-36R analyte
membrane hIL-36R [6] = target: T3, membrane hIL-36R; experiment: flow cytometry on HEK293 cells transfected with hIL-36R, FITC anti-hIgG
[7] = target: T6, recombinant hFcRn-his/B2M heterodimer protein (Acrobio, Cat #FCM-H82W4) (human, UniProt P55899 24-297; P61769 21-119); experiment: BLI (Gator) at pH 6.0, hFcRn-his/B2M on anti-his sensor, antibody analyte
T6 construct: Bought heterodimer
T6 sequence (P55899 24-297 limits assumed, chain 1 of 2): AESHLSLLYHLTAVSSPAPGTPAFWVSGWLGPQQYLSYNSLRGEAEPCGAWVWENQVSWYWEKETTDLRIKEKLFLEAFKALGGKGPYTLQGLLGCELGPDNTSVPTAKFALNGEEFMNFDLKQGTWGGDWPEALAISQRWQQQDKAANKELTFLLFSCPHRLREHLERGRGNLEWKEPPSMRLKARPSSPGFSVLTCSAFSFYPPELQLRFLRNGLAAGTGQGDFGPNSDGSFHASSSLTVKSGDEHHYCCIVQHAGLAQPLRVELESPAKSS
T6 sequence (P61769 21-119 limits assumed, chain 2 of 2): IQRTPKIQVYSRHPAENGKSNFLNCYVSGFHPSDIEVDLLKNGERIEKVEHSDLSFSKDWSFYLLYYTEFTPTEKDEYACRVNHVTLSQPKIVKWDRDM

B1: 5F7-2a8 (antibody, human IgG4 S228P, kappa)
heavy: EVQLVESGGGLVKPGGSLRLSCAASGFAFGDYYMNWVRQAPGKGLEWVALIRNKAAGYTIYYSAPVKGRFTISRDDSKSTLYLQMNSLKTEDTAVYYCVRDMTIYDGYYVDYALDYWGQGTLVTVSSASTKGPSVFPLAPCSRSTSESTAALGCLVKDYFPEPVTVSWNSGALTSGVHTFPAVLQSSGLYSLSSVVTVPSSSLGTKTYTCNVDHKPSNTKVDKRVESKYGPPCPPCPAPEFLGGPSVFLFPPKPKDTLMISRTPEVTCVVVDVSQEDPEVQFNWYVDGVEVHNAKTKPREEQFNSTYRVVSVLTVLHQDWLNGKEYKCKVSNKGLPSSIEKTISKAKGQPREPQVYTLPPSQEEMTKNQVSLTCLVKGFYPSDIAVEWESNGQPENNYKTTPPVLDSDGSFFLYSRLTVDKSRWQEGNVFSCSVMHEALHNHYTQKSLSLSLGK
light: DIVMTQSPSSVSASVGDRVTITCRASRNINIWLSWYQQKPGKAPKLFIYKASNLHTGVPSRFSGSGSGTDFTLTISSLQPEDFATYYCLQSQSYPLTFGQGTKLEIKRTVAAPSVFIFPPSDEQLKSGTASVVCLLNNFYPREAKVQWKVDNALQSGNSQESVTEQDSKDSTYSLSSTLTLSKADYEKHKVYACEVTHQGLSSPVTKSFNRGEC
notes: also called 5F7-2a8-WT; 5F7-WT
For B1, the Kd [1] was under 0.1 nM, the kon [1] was 47100 M⁻¹ s⁻¹ and the binding result [2] was “no binding”. For the same binder, the “IC50, IL-36α induced IL-6 release in HEK cells” value (membrane hIL-36R [3]) was 0.11 µg/mL, the “IC50, IL-36α induced IL-8 release in A431 cells” value (membrane hIL-36R [3]) was 0.195 µg/mL and the “IC50, IL-36α induced IL-8 release in HDF cells” value (membrane hIL-36R [3]) was 6.96 ng/mL. For the same binder, the “IC50, IL-36α induced IL-8 release in HEK cells” value (membrane hIL-36R [3]) was 0.129 µg/mL, the “IC50, IL-36α induced TNF-a release in HEK cells” value (membrane hIL-36R [3]) was 0.0535 µg/mL and the “IC50, IL-36β induced IL-6 release in HEK cells” value (membrane hIL-36R [3]) was 0.0188 µg/mL. The “IC50, IL-36β induced IL-8 release in A431 cells” value (membrane hIL-36R [3]) was 0.111 µg/mL, the “IC50, IL-36β induced IL-8 release in HEK cells” value (membrane hIL-36R [3]) was 0.0481 µg/mL and the “IC50, IL-36β induced TNF-a release in HEK cells” value (membrane hIL-36R [3]) was 0.0235 µg/mL. The “IC50, IL-36γ induced IL-6 release in HEK cells” value (membrane hIL-36R [3]) was 0.0446 µg/mL, the “IC50, IL-36γ induced IL-8 release in A431 cells” value (membrane hIL-36R [3]) was 8.78 ng/mL and the “IC50, IL-36γ induced IL-8 release in HEK cells” value (membrane hIL-36R [3]) was 0.0326 µg/mL. The “IC50, IL-36γ induced TNF-a release in HEK cells” value (membrane hIL-36R [3]) was 5.26 ng/mL, the “IC50, IL-36R reporter assay: inhibition of ligand induced luminescence in Jurkat-IL36R-IL1Racp-NFkB-luc cells” value (membrane hIL-36R [4]) was 0.0237 µg/mL and the EC50 (recombinant hIL-36R-his) was 9.47 ng/mL. The binding result (membrane mouse IL-36R) was “no binding”, the Kd [5] was 1.52 nM and the koff [5] was 4.48e-05 s⁻¹. It also gave a kon [5] of 29500 M⁻¹ s⁻¹, an EC50 (membrane hIL-36R [6]) of 0.146 µg/mL and a Kd [7] of 168 nM. For the same binder, the koff [7] was 0.0507 s⁻¹ and the kon [7] was 301000 M⁻¹ s⁻¹.
